According to patent US20150307627A1:

B1: IgG-Fc-11 (VHH)
VHH: QVQLQESGGGLVQAGGSLRLSCAVSGRTFSTYAMGWFRQAPGKEREFVGSANWKSGSTYLVDSVKGRFTISGDNAHDTVHLQMTSLKPEDTGVYFCVARSFGTGQWDYWGQGTQVTVSS
B2: IgG-Fc-12 (VHH)
VHH: QVQLQESGGGLVQAGGSLRLSCAVSGRTFSTYAMGWFRQAPGKEREFVGSINFKSGSIYLADSVKGRFTISGDNAQNTAYLQMTSLKPEDTAVYLCVARSFGTGQWDYWGQGTQVTVSS
B3: IgG-Fc-13 (VHH)
VHH: QVQLQESGGGLVQAGGSLRLSCAASGDTFSTYAMGWFRQAPGKEREFVGRIVRGTESTYLIDSVKGRFAISRDNAQNTVYLQMTSLKPEDTAVYFCVARSFGAGQWDYWGQGTQVTVSS
B4: IgG-Fc-14 (VHH)
VHH: QVQLQESGGGLVQTGGSLRLSCSASGGTFETYAMGWFRQAPGKEREFVGSTNWKSERTYVADSVKGRFTISRDNGQYTAYLQMTSLKPEDTAVYFCVARSFGTGQWDYWGQGTQVTVSS
B5: IgG-Fc-15 (VHH)
VHH: QVQLQESGGGLVQAGGSLRLSCAVSGRGFSTYAMGWFRQAPGKEREFVGSANWKSGSIYVADSVKGRFTISNDNAQNTVYLQMSSLKPEDTAVYYCVARSFGTGQWDYWGQGTQVTVSS

Biological target: Human IgG
Assay: method not given

Binder	Ka
B1	> 4e+09 M⁻¹
B2	> 4e+09 M⁻¹
B3	> 4e+09 M⁻¹
B4	> 4e+09 M⁻¹
B5	> 4e+09 M⁻¹
